From the nanobody polyreactivity screen of Harvey et al. (2022)

Assay: yeast display, Sf9 membrane polyspecificity reagent, FACS + sequencing; frameworks hold sequencing errors
Outline: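 Nanobodies from a synthetic yeast display library (Saccharomyces cerevisiae BJ5465), induced 36–48 hours with galactose, were stained 1 hour at 4 °C with 10% biotinylated, detergent-solubilized Sf9 membrane reagent, enriched on streptavidin microbeads, then FACS-sorted. Anti-HA (expression) and streptavidin (reagent binding) fluorescence set low and high (top ~1%) gates. Polyreactivity labels come from the gate of origin. Genes were colony-PCR amplified, MiSeq 2 × 250 sequenced and filtered by CDR length.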

QVQLVESGGGLVQAGGSLRLSCAASGFIFSVNAMGWYRQAPGKERELVADISCRGTSTNYADSVKGRFTISRDNAKNTVYLQMNSLKPEDTAVYYCAADGQLHMDYWGQGTQVTVSS
polyreactivity (PSR sort gate): high polyreactivity

QVQLVESGGGLVQAGGSLRLSCAASGFIFSWYAMGWYRQAPGKERELVAAISYSGSNTYYADSVKGRFTISRDNAKNTVYLQMNSLKPEDTAVYYCAATLGSRWAIYDYWGQGTQVTVSS
polyreactivity (PSR sort gate): high polyreactivity

QVQLVESGGGLVQAGGSLRLSCAASGFIFSWYAMGWYRQAPGKERELVATISSSGGRTHYADSVKGRFTISRDNAKNTVYLQMNSLKPEDTAVYYCAAQPFSYFTTVYYWGQGTQVTVSS
polyreactivity (PSR sort gate): high polyreactivity

QVQLVESGGGLVQAGGSLRLSCAASGFIFSYCAKGRYRQAPGKERELVAAISRSGGRTYYADSVKGRYTISRDNAKNTVYLQMNSLKPEDTAVYYCAAPVSLRPIYDYWGQGTQVTVSS
polyreactivity (PSR sort gate): high polyreactivity

QVQLVESGGGLVQAGGSLRLSCAASGFIFSYNAMGSYRQAPGKERELVAAISRRGGSTYYADSVKGRFTISRDNAKNTVYLQMNSLKPEDTAVYYCAAKSYLDSSGTFNYWGQGTQVTVSS
polyreactivity (PSR sort gate): high polyreactivity

QVQLVESGGGLVQAGGSLRLSCAASGFIFSYYAMGWYRPAPGKERELVAAITDSGGSTYYADSVKGRFTISRDNAKNSVYLQMNSLKPEYTAVYYCATEIEQTAEYDYLGQGTQVTVSS
polyreactivity (PSR sort gate): low polyreactivity

QVQLVESGGGLVQAGGSLRLSCAASGFIFSYYAMGWYRQAPGKERELVAAINYSGGRTYYADSVKGRFTISRDYAKNTVYLQMNSLKPEDTAVYYCNAVTFGRRAFDYWGQGTQVTVSS
polyreactivity (PSR sort gate): high polyreactivity

QVQLVESGGGLVQAGGSLRLSCAASGFIFSYYAMGWYRQAPGKERELVAAISSSGGTTYADSVKGRFTISRDNAKNTVYLQMNSLKPEDTAVYYCARVQYWFYKPMYYWGQGTQVNVSS
polyreactivity (PSR sort gate): high polyreactivity

QVQLVESGGGLVQAGGSLRLSCAASGFIFSYYAMGWYRQAPGKERELVATITSGGSTNYADSVKGRFTISRDNAKNTVYLQMNSLKPEVTAVNYCATRKYRVPRSYDWGQGTQVTVTS
polyreactivity (PSR sort gate): high polyreactivity

QVQLVESGGGLVQAGGSLRLSCAASGFIFSYYTMGWYRQAPGKESELVAAISYSGGSTDYADSVKWRFTISRDNAKNTVYLQMNSLKPEDTAVYYCNADYSFWAEPYWEYGYDYWGQGTQVTVSS
polyreactivity (PSR sort gate): low polyreactivity

QVQLVESGGGLVQAGGSLRLSCAASGFIFTDNAMGWYRQAPGKERELVAAISKNGGSTYYADSVKGRFTISRDNAKNTVYLQMNSLKPDDTAVYYCNAVRRDSGTYRSPDTTRYDYWGQVTQVTVSS
polyreactivity (PSR sort gate): high polyreactivity

QVQLVESGGGLVQAGGSLRLSCAASGFIFTDYAMGWYRQAPGKERELVATISWSGSSTYYADSVKGRFTISRDNAKNTVYLQMNSLKPEDTAVYYCAAEFWYTYPYLVDYWGQGTKVTVSS
polyreactivity (PSR sort gate): low polyreactivity

QVQLVESGGGLVQAGGSLRLSCAASGFIFTFYAMGWYRQAPGKEREFVASIDWGDGSTYYADSVKGRFTISRDNAKNTVYLQMNSLKPEDTAVYYCAHDYDGYVWDTEYDYWGQGTQVTVSS
polyreactivity (PSR sort gate): low polyreactivity

QVQLVESGGGLVQAGGSLRLSCAASGFIFTGNVMGWYRQAPGKERELVAAITSSGGSTYYADSVKGRFTISRDNAKNTVYLQMNSLKPEDTAVYYCATRYGGRYYWGQGTQVTVSS
polyreactivity (PSR sort gate): high polyreactivity

QVQLVESGGGLVQAGGSLRLSCAASGFIFTGYAMGWYRQAPGKERELVAAITRNGGSTYYADSVKGRFTISRDNAKNSVYLQMNSLKPEDTAVYYCAARGNRVSPEYYYWGQGTQVTVSS
polyreactivity (PSR sort gate): high polyreactivity

QVQLVESGGGLVQAGGSLRLSCAASGFIFTGYTMGWYRQAPGKERELVAAISYRGGSTYYSDSVKGRFTISRDNAKNTVYLQMNSLKPEDTEVYFCAAESIYFYEYDYWGQGTQVTVSS
polyreactivity (PSR sort gate): high polyreactivity

QVQLVESGGGLVQAGGSLRLSCAASGFIFTIYAMGWYRQAPRKERELVAAITWNGGRTYYADSVKGRFTISRDNAKNTVYLQMISLKPEDTAVYYCAARYGRAYDYWGQGTQVTVSS
polyreactivity (PSR sort gate): high polyreactivity
